Source: the RNAGym collection of RNA variant scans (doi:10.7554/elife.80360)

B1: HDV Ribozyme (parent)
chain: GGCCGGCAUGGUCCCAGCCUCCUCGCUGGCGCCGGCUGGGCAACAUUCCGAGGGGACCGUCCCCUCGGUAAUGGCGAAUGGGACCCA

Variants of: B1
Assay: self-cleavage, relative activity (ratio to wild type); higher = more cleavage; co-transcriptional

Variant	self-cleavage
C3G U9A	0.799
C3G U9G	0.789
C3U U69A	0.831
C3G A70G	0.475
C3G A70U	0.636
C4A C41G	0.0519
C4A C41U	0.163
C3U G81U	0.187
C3U G81C	0.0563
C3U A83G	0.554
C3U A83C	0.318
C3G G40C	0.339
C3G G40A	0.575
C4A C18A	0.0277
C4A C18G	0.166
C3G C19G	0.0326
C3G C19U	0.158
C3U C64U	0.954
C3G C75G	0.0496
C3U C18U	0.43
C3U C18A	0.0782
C3G C49U	0.673
C3G C49A	0.736
C3U C44A	0.492

Variant	self-cleavage
C3A G29U	0.0316
C3A G29C	0
C3G C30U	0.156
C3U U20A	0.0308
C3G U79C	0.182
C3G U79G	0.262
C3A U47G	0.237
C3A U47A	0.429
C3U G28A	0.0294
C3G C86G	1.14
C3G C86A	0.876
C3A G80U	0.0893
C3G C48U	0.736
C3G C48G	0.695
C3G C48A	0.698
C3U G76U	0.973
C3A G82U	0.0831
C3A G82C	0.056
C3G G10A	0.107
C3U G55A	0.763
C3A U37C	0.661
C3A U37G	0.0685
C3U G50A	0.682
C3A G73U	0.111

Variant	self-cleavage
C3U G80U	0.114
C3U G80A	0.175
C3U G80C	0.159
C3G U23G	0.0791
C3G U23A	0.929
C3U G68U	0.866
C3U G68A	0.831
C3U G68C	0.781
C3U C48G	0.641
C3U C48A	0.675
C3A G31U	0.0339
C3G C21G	0
C3G C21A	0
C3G G54C	0.674
C3G G54A	0.683
C3G C64A	0.528
C3G C64U	0.726
C3G C64G	0.546
C3A G38C	0
C3U A71U	0.742
C3U A71C	0.427
C3U C4G	0
C3U C4U	0.655
C3U C63U	0.645

Variant	self-cleavage
C3G U37A	0
C3G U37G	0.123
C3A G54A	0.369
C4A C19A	0.0386
C3G C15U	0.532
C4A A16U	0.0665
C3U U72A	0.684
C3G G50A	0.589
C3U C61U	0.923
C3G C18U	0.04
C3G C18A	0.0542
C3G C18G	0.0475
C4A C58U	0.424
C4A C58G	0.259
C3U A78C	0.04
C3G U12A	0.0462
C3G U12G	0.32
C3A U27C	0.217
C4A C32U	0.0489
C4A C32G	0
C3G A16C	0.208
C3G A16U	0.655
C3G G6U	0.0665
C3U U79C	0.342

Variant	self-cleavage
C3U U79G	0.489
C3A G11C	0.0963
C3A G11A	0.236
C3G G25A	0.0511
C3G G25C	0.0292
C3U G10C	0.762
C3U G10U	0.372
C3U G40A	0.857
C3U G40U	0.594
C3A U60C	0.499
C4A C21A	0
C4A C21U	0.0346
C3G G68A	0.51
C3A G40A	0.412
C3U G17A	0.361
C3G U69A	0.582
C3G C58G	0.796
C4A C30A	0.0519
C4A A51C	0.277
C4A C57U	0.237
C4A C57A	0.541
C4A C14G	0.175
C4A C26G	0.348
C3G G35U	1.33

Variant	self-cleavage
C3G G76A	0.984
C3G G76C	0.65
C3G G76U	0.926
C3G	0.753
C3U	0.802
C3G A45G	0.816
C3G A45C	0.113
C3G A45U	0.299
C3U C21A	0.122
C3U C21U	0.101
C3U C49A	0.843
C3U C49G	0.68
C3U C33U	0.769
C3G G38U	0.166
C4A C15U	0.0378
C4A C15G	0.166
C3G G73A	0.211
C3G G73U	0.0583
C3A G34U	0.109
C3A G34C	0.0903
C4A C24A	0.0475
C4A C13U	0.0739
C4A A56G	0.217
C4A A56C	0.287

Variant	self-cleavage
C4A A56U	0.321
C3G C7A	0.0213
C3G A77U	0.0297
C3G A77G	0.237
C3G C32U	0.198
C3G C32A	0
C3G C32G	0.0282
C3U C22A	0.161
C3U C22G	0.0193
C3G G52A	0.702
C3G A83C	0.191
C3A U20A	0.0683
C3A U20G	0.0163
C3U G31A	0.329
C3U C85G	0.87
C3U C58G	0.767
C3U C58A	0.818
C3U U9G	0.942
C3U U9C	0.95
C3A G10C	0.504
C3A G10U	0.23
C3G G59U	0.899
C3G G59A	0.831
